Experimental data as given in patent publication US20230158141A1 (YAFEI SHANGHAI BIOLOG MEDICINE SCIENCE AND TECHNOLOGY, published 2023).
Like-named read-outs stand apart in the source and are kept apart here.

Experiments:
CTLA-4 [1] = biological target: T1, CTLA-4 (UniProt P16410 36-162, limits assumed); test: ELISA, conjugate vs WT antibody
T1 sequence (P16410 36-162 limits assumed): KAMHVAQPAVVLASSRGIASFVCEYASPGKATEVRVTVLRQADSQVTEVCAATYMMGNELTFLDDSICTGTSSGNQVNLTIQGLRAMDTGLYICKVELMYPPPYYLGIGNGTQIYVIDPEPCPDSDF

CTLA-4 [2] = biological target: T1, CTLA-4; test: ELISA, OD mutant/OD WT; ↓=less than 70%
CTLA-4 [3] = biological target: T2, CTLA-4 (UniProt P16410 36-162, limits assumed); test: ELISA; R4-1 on the Cys
T2 construct: also called CTLA-4 protein
T2 sequence (P16410 36-162 limits assumed): as above

CTLA-4 [4] = biological target: T2, CTLA-4; test: ELISA; S47 on the Cys
CTLA-4 [5] = biological target: T2, CTLA-4; test: ELISA; R4-1 on the Cys; remark: listed apart in the source
PD-1 = PD-1 (UniProt Q15116 25-167, limits assumed); test: ELISA, conjugate vs WT antibody
PD-1, sequence (Q15116 25-167 limits assumed): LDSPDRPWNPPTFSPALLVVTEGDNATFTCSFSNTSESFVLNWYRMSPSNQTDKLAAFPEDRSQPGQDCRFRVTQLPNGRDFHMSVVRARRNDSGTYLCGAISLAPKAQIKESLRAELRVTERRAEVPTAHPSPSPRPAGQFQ

Binder | Binding activity (CTLA-4 [3]) | Activity after S47 (40 kD) blocking (CTLA-4 [4]) | Binding activity (CTLA-4 [5]) | other results
anti-CTLA-4 antibody heavy chain S30C-R4-1 (antibody, human IgG1, kappa, V domains shown, R4-1 on Cys 30) VH: QVQLVESGGGVVQPGRSLRLSCAASGFTFCSYTMHWVRQAPGKGLEWVTFISYDGNNKYYADSVKGRFTISRDNSKNTLYLQMNSLRAEDTAIYYCARTGWLGPFDYWGQGTLVTVSS VL: not shown |  |  |  | binding activity (% of WT) (CTLA-4 [1]): 93.4%
anti-CTLA-4 antibody heavy chain S31C-R4-1 (antibody, human IgG1, kappa, V domains shown, R4-1 on Cys 31) VH: QVQLVESGGGVVQPGRSLRLSCAASGFTFSCYTMHWVRQAPGKGLEWVTFISYDGNNKYYADSVKGRFTISRDNSKNTLYLQMNSLRAEDTAIYYCARTGWLGPFDYWGQGTLVTVSS VL: not shown |  |  |  | binding activity (% of WT) (CTLA-4 [1]): 110%
anti-CTLA-4 antibody heavy chain Y53C (antibody, human IgG1, kappa, V domains shown) VH: QVQLVESGGGVVQPGRSLRLSCAASGFTFSSYTMHWVRQAPGKGLEWVTFISCDGNNKYYADSVKGRFTISRDNSKNTLYLQMNSLRAEDTAIYYCARTGWLGPFDYWGQGTLVTVSS VL: not shown |  |  |  | binding activity vs wild type (CTLA-4 [2]): < 70%
anti-CTLA-4 antibody heavy chain Y59C (antibody, human IgG1, kappa, V domains shown) VH: QVQLVESGGGVVQPGRSLRLSCAASGFTFSSYTMHWVRQAPGKGLEWVTFISYDGNNKCYADSVKGRFTISRDNSKNTLYLQMNSLRAEDTAIYYCARTGWLGPFDYWGQGTLVTVSS VL: not shown |  |  |  | binding activity vs wild type (CTLA-4 [2]): < 70%
anti-CTLA-4 antibody heavy chain Y59C-R4-4 (antibody, human IgG1, kappa, V domains shown, R4-4 on Cys 59) VH: QVQLVESGGGVVQPGRSLRLSCAASGFTFSSYTMHWVRQAPGKGLEWVTFISYDGNNKCYADSVKGRFTISRDNSKNTLYLQMNSLRAEDTAIYYCARTGWLGPFDYWGQGTLVTVSS VL: not shown |  |  |  | binding activity (% of WT) (CTLA-4 [1]): 89.1%
anti-CTLA-4 antibody heavy chain Y60C (antibody, human IgG1, kappa, V domains shown) VH: QVQLVESGGGVVQPGRSLRLSCAASGFTFSSYTMHWVRQAPGKGLEWVTFISYDGNNKYCADSVKGRFTISRDNSKNTLYLQMNSLRAEDTAIYYCARTGWLGPFDYWGQGTLVTVSS VL: not shown |  |  |  | binding activity vs wild type (CTLA-4 [2]): < 70%
Ipilimumab L31 Ser to Cys (antibody, V domains shown, chain 2 pos 32 (Kabat L31): introduced Cys carrying the conjugated group of the row (R4-1 or S47), written C) VH: QVQLVESGGGVVQPGRSLRLSCAASGFTFSSYTMHWVRQAPGKGLEWVTFISYDGNNKYYADSVKGRFTISRDNSKNTLYLQMNSLRAEDTAIYYCARTGWLGPFDYWGQGTLVTVSS VL: not shown | 99% | 12% | 99% | 
Ipilimumab L33 Leu to Cys (antibody, V domains shown, chain 2 pos 34 (Kabat L33): introduced Cys carrying the conjugated group of the row (R4-1 or S47), written C) VH: QVQLVESGGGVVQPGRSLRLSCAASGFTFSSYTMHWVRQAPGKGLEWVTFISYDGNNKYYADSVKGRFTISRDNSKNTLYLQMNSLRAEDTAIYYCARTGWLGPFDYWGQGTLVTVSS VL: not shown | 95% | 6% | 95% | 
Ipilimumab L34 Ala to Cys (antibody, V domains shown, chain 2 pos 35 (Kabat L34): introduced Cys carrying the conjugated group of the row (R4-1 or S47), written C) VH: QVQLVESGGGVVQPGRSLRLSCAASGFTFSSYTMHWVRQAPGKGLEWVTFISYDGNNKYYADSVKGRFTISRDNSKNTLYLQMNSLRAEDTAIYYCARTGWLGPFDYWGQGTLVTVSS VL: not shown | 92% | 11% | 92% | 
Ipilimumab L50 Gly to Cys (antibody, V domains shown, chain 2 pos 51 (Kabat L50): introduced Cys carrying the conjugated group of the row (R4-1, R4-3 or S47), written C) VH: QVQLVESGGGVVQPGRSLRLSCAASGFTFSSYTMHWVRQAPGKGLEWVTFISYDGNNKYYADSVKGRFTISRDNSKNTLYLQMNSLRAEDTAIYYCARTGWLGPFDYWGQGTLVTVSS VL: not shown | 97% | 19% | 97% | 
Ipilimumab L51 Ala to Cys (antibody, V domains shown, chain 2 pos 52 (Kabat L51): introduced Cys carrying the conjugated group of the row (R4-1 or S47), written C) VH: QVQLVESGGGVVQPGRSLRLSCAASGFTFSSYTMHWVRQAPGKGLEWVTFISYDGNNKYYADSVKGRFTISRDNSKNTLYLQMNSLRAEDTAIYYCARTGWLGPFDYWGQGTLVTVSS VL: not shown | 92% | 25% | 92% | 
Ipilimumab L52 Phe to Cys (antibody, V domains shown, chain 2 pos 53 (Kabat L52): introduced Cys carrying the conjugated group of the row (R4-1 or S47), written C) VH: QVQLVESGGGVVQPGRSLRLSCAASGFTFSSYTMHWVRQAPGKGLEWVTFISYDGNNKYYADSVKGRFTISRDNSKNTLYLQMNSLRAEDTAIYYCARTGWLGPFDYWGQGTLVTVSS VL: not shown | 72% | 16% | 72% | 
anti-PD-1 antibody 2 light chain A25C-R4-5 (antibody, human IgG4 S228P, kappa, V domains shown, R4-5 on Cys 25) VH: QVQLVESGGGVVQPGRSLRLDCKASGITFSNSGMHWVRQAPGKGLEWVAVIWYDGSKRYYADSVKGRFTISRDNSKNTLFLQMNSLRAEDTAVYYCATNDDYWGQGTLVTVSS VL: EIVLTQSPATLSLSPGERATLSCRCSQSVSSYLAWYQQKPGQAPRLLIYDASNRATGIPARFSGSGSGTDFTLTISSLEPEDFAVYYCQQSSNWPRTFGQGTKVEIKR |  |  |  | binding activity (% of WT) (PD-1): 87.2%
